{"source": "patent US6610289B2", "about": "“Mutated herpes simplex virus type 1 thymidine kinases and uses thereof” (The Board of Trustees of the University of Arkansas, priority 1998, dated 2003)", "key": {"HSV-1 TK [1]": {"biological_target": "T1, HSV-1 TK (Human herpesvirus 1, UniProt P0DTH5)", "T1 sequence (P0DTH5 1-376)": "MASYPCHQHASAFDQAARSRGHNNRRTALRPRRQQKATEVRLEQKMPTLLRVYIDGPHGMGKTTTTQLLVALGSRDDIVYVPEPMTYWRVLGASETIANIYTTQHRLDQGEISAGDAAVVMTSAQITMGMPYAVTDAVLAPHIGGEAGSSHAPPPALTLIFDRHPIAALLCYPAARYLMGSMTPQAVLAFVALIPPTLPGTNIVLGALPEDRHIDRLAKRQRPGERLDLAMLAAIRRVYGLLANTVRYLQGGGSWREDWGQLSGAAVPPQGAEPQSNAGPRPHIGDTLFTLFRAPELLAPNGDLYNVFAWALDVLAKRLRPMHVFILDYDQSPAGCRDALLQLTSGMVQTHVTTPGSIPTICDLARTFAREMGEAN", "conditions": "reference (29); cited from earlier work"}, "HSV-1 TK [2]": {"biological_target": "T1, HSV-1 TK", "experiment": "Photoaffinity labeling with [^32P]5-azido-dUMP", "format": "binding, herpes simplex virus type 1", "design": "made in house; host or cells: E. coli BL21SY211 (pET-9a derived pET-TK1)", "conditions": "FIG. 1, autoradiograph", "protocol": "The TMP photoaffinity analog, [^32P]5-N3dUMP, was synthesized enzymatically using HSV-1 TK, 5-azido-deoxyuridine and [g-^32P]ATP as previously described (10, 12). For photolabeling studies, 10 μg of the DE-52/heparin agarose purified HSV-TKs were incubated with 10 mM [^32P]5-N3dUMP for 10 seconds. The sample was then irradiated for 90 seconds with a hand-held UV lamp (254 nm UVP-11, Ultraviolet Products, Inc.) at a distance of 3 cm. Reactions were terminated by addition of an equal volume of 10% TCA, incubated on ice for 10 minutes, and pelleted by centrifugation at 13,000×g for 5 minutes. The protein was resuspended in a solubilization mixture (23) and separated on 10% SDS-polyacrylamide gels. Dried gels were exposed to film for 2 days.\nThe thymidine and TMP photoaffinity analog, [^32p]5-azido-dUMP, has proven useful as an active-site cross-linking reagent for studying HSV-1 TK (10, 12). This analog was used for photocrosslinking of the four HSV-1 TKs."}, "HSV-1 TK [3]": {"biological_target": "T2, HSV-1 TK (Human herpesvirus 1, UniProt P0DTH5, Q125N)", "T2 construct": "glutathione-S-transferase (GST)", "T2 sequence (P0DTH5 1-376 Q125N)": "T1 sequence (P0DTH5 1-376) with Q125N", "conditions": "previous study (17); cited from earlier work"}, "Caspase 3": {"test_system": "Caspase 3", "experiment": "Caspase 3 colorimetric assay", "format": "cell-based, human", "conditions": "25 μM GCV, FIG. 8", "method": "Parental HCT-116, wild-type HSV-1TK, Asn-125TK and Glu-125TK-expressing HCT-116 cells were treated with 0 (black bars) or 25 μM GCV (gray bars) for 4 days. Cell lysates were prepared and caspase 3 assays performed using a colorimetric ApoAlert CPP32/Caspase-3 kit as per manufacturers instructions (Clontech). Relative caspase 3 activity was determined by O.D. 405 nm readings of the cleaved DEVD-pNA substrate and presented as DVEDase activity.\nCaspase 3-like activity was determined in parental HCT-116 and each HSV-1 TK expressing cell line treated for 50 hrs plus or minus 25 μM GCV using an Apo-Alert CPP32/Caspase 3 Colorimetric Assay kit with the peptide substrate, DEVD-pNA, as per manufacturers instructions (Clontech Laboratories, INC.). GCV-treated and untreated cells were grown in 25 cm^2 flasks, and cell numbers were determined using a hemocytometer prior to analysis. Assays were done in triplicate with protein extracts derived from 2×10^6 cells. The amount of Caspase 3-like activities were quantitated using a Shimadzu UV/VIS spectophotometer set at 405 nm.\nCaspase 3 activity was determined in different cell extracts derived from GCV-treated and control cells using a calorimetric assay with the peptide substrate DVED (SEQ ID No. 4)."}, "HCT-116 cells": {"test_system": "HCT-116 cells", "experiment": "Clonal dilution assay for bystander effect cell killing", "format": "cell-based, human", "conditions": "25 μM GCV 24 hours", "protocol": "Each of the three HSV-1 TK expressing cell lines were plated with parental HCT-116 cells (total 2×10^5/well) in the following proportions: (parental: HSV-1TK cells) 100%:0; 95%:5%; 90%:10%; 75%:25%; 50%:50% and 0:100%. […] After 7 days, surviving cell colonies were fixed in 100% methanol, stained with 0.1% methylene blue and counted.\nFor determination of GCV sensitivity, parental HCT-116 and each HSV-1 TK expressing cells were seeded in 24 well plates (2×10^5/well) in 1 ml of media. The next day, 0, 0.1, 1 or 10 μM GCV was added to each cell line in triplicate. After 24 hours, for each well the media was removed, cells were rinsed twice in fresh media, trypsinized, then media was added to 1 ml per well. Each well of cells was then sequentially diluted from 1:10 to 1:10,000 in 1 ml of fresh media on a separate 24 well plate. After 7 days, surviving cell colonies were fixed in 100% methanol, stained with 0.1% methylene blue and counted. […]\nIt has been previously established that HCT-116 cells expressing HSV-1 TK are sensitive to bystander effect cell death via a connexin-43 gap junction mediated transfer of GCV metabolites (24). […] In these same cell lines, a greater than 4-log reduction in cell colony numbers was detected with 25% and 50% proportions of HSV-1 TK-expressing cells. […]"}, "HSV-1 TK [4]": {"biological_target": "T3, HSV-1 TK (Human herpesvirus 1, UniProt P0DTH5, Q125E)", "T3 construct": "glutathione-S-transferase (GST)", "T3 sequence (P0DTH5 1-376 Q125E)": "T1 sequence (P0DTH5 1-376) with Q125E", "conditions": "previous study (17); cited from earlier work"}}, "note": "Numbering of substitutions follows the chain as printed.", "data": [{"substance": "Gln-125 (WT): wild-type herpes simplex virus type 1 thymidine kinase with glutamine at position 125, parent enzyme [reference compound]", "values": [{"measurement": "Km for thymidine lower than that of GCV", "setting": "HSV-1 TK [1]", "value": "70-100 times"}, {"measurement": "Photoincorporation of [^32P]5-azido-dUMP", "setting": "HSV-1 TK [2]", "value": "photoincorporated efficiently"}]}, {"substance": "Asn-125", "values": [{"measurement": "Increase in the Km of ACV", "setting": "HSV-1 TK [3]", "value": 3, "unit": "fold"}, {"measurement": "Increase in the Km of thymidine", "setting": "HSV-1 TK [3]", "value": 50, "unit": "fold"}]}, {"substance": "Glu-125", "values": [{"measurement": "DVED-ase activity of GCV-treated cells relative to GCV-treated wild-type or Asn-125 HSV-1TK-expressing cells", "setting": "Caspase 3", "value": "three times lower"}, {"measurement": "Bystander effect: decrease in cell colony numbers", "setting": "HCT-116 cells; 10% proportions", "value": 1, "unit": "log"}, {"measurement": "Bystander effect: decrease in cell colony numbers", "setting": "HCT-116 cells; 50% proportions", "value": "~3", "unit": "log"}, {"measurement": "Thymidine and ACV phosphorylation activities", "setting": "HSV-1 TK [4]", "value": "no detectable activities"}]}]}
